From US20190071499A1 (published 2019)

Key:
[1] = molecular target: T1, human Fc fusion mouse IFN-α4 (mouse, UniProt P07351 25-186); experiment: ELISA, human Fc fusion mouse IFN-α
T1 construct: bought (SinoBiological); also called murine IFN-α4; not shown: human Fc
T1 sequence (looked up): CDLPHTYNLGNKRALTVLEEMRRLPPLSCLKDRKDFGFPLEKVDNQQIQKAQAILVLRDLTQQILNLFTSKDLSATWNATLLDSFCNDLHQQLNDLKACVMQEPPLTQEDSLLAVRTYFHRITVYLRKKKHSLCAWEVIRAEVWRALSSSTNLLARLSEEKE

[2] = molecular target: T2, human Fc fusion mouse IFN-α2 (mouse, UniProt P01573 24-190); experiment: ELISA, human Fc fusion mouse IFN-α
T2 construct: bought (SinoBiological); also called murine IFN-α2; murine INFA2; not shown: human Fc
T2 sequence (looked up): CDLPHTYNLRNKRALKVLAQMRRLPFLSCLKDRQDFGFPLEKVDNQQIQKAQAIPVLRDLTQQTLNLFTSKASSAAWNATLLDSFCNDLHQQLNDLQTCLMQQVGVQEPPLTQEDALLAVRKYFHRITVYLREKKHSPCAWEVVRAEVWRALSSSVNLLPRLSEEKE

[3] = molecular target: T3, g1mIFN-α9 (mouse, UniProt P09235 24-190); experiment: LIPS
T3 construct: also called murine IFN-α9 (Gaussia luciferase fusion); not shown: Gaussia luciferase fusion partner
T3 sequence (looked up): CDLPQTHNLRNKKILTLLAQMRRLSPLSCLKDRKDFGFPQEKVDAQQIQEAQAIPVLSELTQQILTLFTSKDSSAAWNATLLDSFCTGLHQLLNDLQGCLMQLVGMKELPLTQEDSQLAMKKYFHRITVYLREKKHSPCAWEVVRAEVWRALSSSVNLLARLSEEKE

[4] = molecular target: T4, human IFN-α1 (human, UniProt P0DY56 24-189); experiment: ELISA or LIPS (Table 7 summary; ELISA at 300 ng/ml MAB in paragraph 311)
T4 construct: commercial recombinant protein; also called IFN-alpha 1beta; IFN-α1/13
Description: In this experiment, examined MABs (300 ng/ml) were incubated for 2 hours with antigen-coated plates (coating overnight at 1 μg/ml in PBS, followed by wash out and blocking with 2% BSA in PBS). The plates were subsequently washed and binding of MABs was detected with anti-human HRP-conjugated secondary antibody.

[5] = molecular target: T5, human IFN-α10 (human, UniProt P01566 24-189); experiment: ELISA or LIPS (Table 7 summary)
T5 construct: recombinant protein; also called rhIFN-α10

[6] = molecular target: T6, human IFN-α21 (human, UniProt P01568 24-189); experiment: ELISA or LIPS (Table 7 summary)
T6 construct: commercial recombinant protein; also called rhIFN-α21; IFN-α21 (PBL)

[7] = molecular target: T7, human IFN-α16 (human, UniProt P05015 24-189); experiment: ELISA or LIPS (Table 7 summary)
T7 construct: recombinant protein; also called rhIFN-α16
T7 sequence (P05015 24-189 limits assumed): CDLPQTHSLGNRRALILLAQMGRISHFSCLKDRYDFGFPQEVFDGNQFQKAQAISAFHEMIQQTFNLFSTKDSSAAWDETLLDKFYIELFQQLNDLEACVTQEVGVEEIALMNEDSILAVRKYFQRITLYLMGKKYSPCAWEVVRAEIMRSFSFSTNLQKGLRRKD

T6 sequence (P01568 24-189 limits assumed): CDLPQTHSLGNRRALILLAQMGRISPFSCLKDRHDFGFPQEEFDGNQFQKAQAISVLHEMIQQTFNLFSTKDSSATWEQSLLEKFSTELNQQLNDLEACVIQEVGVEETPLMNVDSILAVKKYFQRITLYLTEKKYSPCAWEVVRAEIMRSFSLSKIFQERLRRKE
T4 sequence (P0DY56 entry or part of it limits assumed): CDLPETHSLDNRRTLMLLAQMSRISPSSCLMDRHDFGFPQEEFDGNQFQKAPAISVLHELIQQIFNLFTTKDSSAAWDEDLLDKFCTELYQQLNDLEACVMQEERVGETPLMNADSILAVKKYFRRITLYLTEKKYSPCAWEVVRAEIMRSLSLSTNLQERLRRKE
T5 sequence (P01566 24-189 limits assumed): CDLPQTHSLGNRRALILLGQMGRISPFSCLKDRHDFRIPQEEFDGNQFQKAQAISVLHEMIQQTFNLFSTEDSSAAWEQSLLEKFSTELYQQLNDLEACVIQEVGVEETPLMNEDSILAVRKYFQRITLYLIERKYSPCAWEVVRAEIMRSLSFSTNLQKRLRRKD

binding result [1]: no binding | binding result [2]: no binding | binding result [3]: no binding | binding result [4]: no binding | binding result [5]: binds | binding result [6]: binds | binding result [7]: binds
B1: 5D1 (antibody, human IgG1, kappa, V domains shown)
VH: EVQLVQAGAEVKAPGESLRISCKVSGYTFTSYWISWVRQIPGKGLEWMVKIDPRDSYTIYNPSFQGHVSISVDKSITTVYLQWSSLQASDTAIYYCVRHYLTQSLVDYFDHWGQGTLVAVSS
VL: DIQMTQSPSSLSASVGDSVTITCRASQSVSNYFHWYRQKPGKAPELLIYSASNLQTGVPSRFTGSGSGTECTLTITSLQPDDFATYYCQQTHGYPFTFGQGTKLDVRR
notes: human-derived IgG1, kappa; also called MAB 5D1; hMAB 5D1
